The data set has as its target cardiac troponin I (cTnI) (UniProt P19429 P19429:2-210). The data set can be described thus: cTnI-dependent opening of aptamer on magnetic particles, supernatant fluorescence of tagged HTG-H1 falls with cTnI; 0.5 ng/mL not distinguishable from blank; native PAGE HCR products also cTnI-dependent (p77, FIG. 6B); SERRS LOD 0.5 pg/mL in serum (p85), colorimetric hyperbranched HCR LOD 0.117 ng/mL (p104); high-salt buffer 20 mM Tris pH 7.6, 1000 mM NaCl, 5 mM KCl, 2 mM MgCl2, 1 mM CaCl2. The conditions noted are these: tags: Genscript (SERRS studies); label: biotin (on streptavidin magnetic particles).

cardiac troponin I (cTnI), sequence (P19429 2-210, one chain of several): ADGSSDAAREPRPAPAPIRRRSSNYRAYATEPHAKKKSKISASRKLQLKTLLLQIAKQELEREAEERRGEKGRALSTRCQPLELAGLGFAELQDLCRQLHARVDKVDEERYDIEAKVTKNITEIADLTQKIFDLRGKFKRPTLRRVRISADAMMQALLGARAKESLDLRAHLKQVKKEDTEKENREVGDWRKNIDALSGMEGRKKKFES

B1: locked Tro4 aptamer-initiator (Tro4 + A8 spacer + HCR initiator + blocker) (ssDNA)
DNA: TTTTTCGTGCAGTACGCAACCTTTCTCATGCGCTGCCCCTCTTAAAAAAAAGCAGATCCTAAGCCGCACCCAATTAAGGGGCAGCGCATGAGAAAGGTTCCGTA
In the case of B1, the binding result is “binds”.
